Several values for one entry are separate records, joined by “and”; a condition that tells them apart may be missing. Equal values may be shown once.
Legend:
Assay in all cases: cell-based or functional assay
[1] = target: HIV-1 Env of pseudovirus JRCSF (HIV-1) (UniProt P20871)
[2] = target: HIV-1 Env of pseudovirus 93IN905 (HIV-1)
[3] = target: HIV-1 Env of pseudovirus MGRM-C-26 (HIV-1)
[4] = target: HIV-1 Env of isolate MGRM-G-024 (subtype G), on pseudovirus (HIV-1)
[5] = target: HIV-1 Env of isolate MGRM-G-028 (subtype G), on pseudovirus (HIV-1)
[6] = target: HIV-1 Env of isolate 97ZA012 (subtype C) (HIV-1)
[7] = target: HIV-1 Env of isolate MGRM-C-007 (subtype C) (HIV-1)
[8] = target: HIV-1 Env of isolate MGRM-G-027 (subtype G), on pseudovirus (HIV-1)
[9] = target: HIV-1 Env of isolate MGRM-C-017 (subtype C) (HIV-1)
[10] = target: HIV-1 Env of isolate MGRM-C-027 (subtype C) (HIV-1)
[11] = target: aMLV envelope, on pseudovirus (negative control)
[12] = target: HIV-1 Env of isolate MGRM-C-024 (subtype C) (HIV-1)
[13] = target: HIV-1 Env of isolate MGRM-G-001 (subtype G), on pseudovirus (HIV-1)
[14] = target: HIV-1 Env of isolate MGRM-G-016 (subtype G), on pseudovirus (HIV-1)
[15] = target: HIV-1 Env of isolate MGRM-G-019 (subtype G), on pseudovirus (HIV-1)
[16] = target: HIV-1 Env of isolate MGRM-C-001 (subtype C) (HIV-1)
[17] = target: HIV-1 Env of isolate MGRM-C-026 (subtype C) (HIV-1)
[18] = target: HIV-1 Env of isolate MGRM-C-009 (subtype C) (HIV-1)
[19] = target: HIV-1 Env of isolate MGRM-G-017 (subtype G), on pseudovirus (HIV-1)
[20] = target: HIV-1 Env of isolate MGRM-C-005 (subtype C) (HIV-1)
[21] = target: HIV-1 Env of isolate MGRM-C-014 (subtype C) (HIV-1)
[22] = target: HIV-1 Env of isolate 98IN022 (subtype C) (HIV-1)
[23] = target: HIV-1 Env of isolate MGRM-G-009 (subtype G), on pseudovirus (HIV-1)
[24] = target: HIV-1 Env of isolate MGRM-C-004 (subtype C) (HIV-1)
[25] = target: HIV-1 Env of isolate MGRM-G-014 (subtype G), on pseudovirus (HIV-1)
[26] = target: HIV-1 Env of isolate MGRM-C-020 (subtype C) (HIV-1)
[27] = target: HIV-1 Env of isolate MGRM-G-011 (subtype G), on pseudovirus (HIV-1)
[28] = target: HIV-1 Env of isolate MGRM-C-022 (subtype C) (HIV-1)
[29] = target: HIV-1 Env of isolate MGRM-C-012 (subtype C) (HIV-1)
[30] = target: HIV-1 Env of isolate MGRM-G-006 (subtype G), on pseudovirus (HIV-1)
[31] = target: HIV-1 Env of isolate MGRM-C-008 (subtype C) (HIV-1)
[32] = target: HIV-1 Env of isolate MGRM-C-028 (subtype C) (HIV-1)
[33] = target: HIV-1 Env of isolate MGRM-G-013 (subtype G), on pseudovirus (HIV-1)
[34] = target: HIV-1 Env of isolate MGRM-C-013 (subtype C) (HIV-1)
[35] = target: HIV-1 Env of isolate MGRM-C-002 (subtype C) (HIV-1)
[36] = target: HIV-1 Env of isolate MGRM-C-006 (subtype C) (HIV-1)
[37] = target: HIV-1 Env of isolate 93MW959 (subtype C) (HIV-1)
[38] = target: HIV-1 Env of isolate MGRM-C-025 (subtype C) (HIV-1)
[39] = target: HIV-1 Env of isolate MGRM-C-010 (subtype C) (HIV-1)
[40] = target: HIV-1 Env of isolate MGRM-C-015 (subtype C) (HIV-1)
[41] = target: HIV-1 Env of isolate MGRM-G-025 (subtype G), on pseudovirus (HIV-1)
[42] = target: HIV-1 Env of isolate MGRM-G-015 (subtype G), on pseudovirus (HIV-1)
[43] = target: HIV-1 Env of isolate MGRM-G-004 (subtype G), on pseudovirus (HIV-1)
[44] = target: HIV-1 Env of isolate MGRM-C-023 (subtype C) (HIV-1)
[45] = target: HIV-1 Env of isolate MGRM-C-019 (subtype C) (HIV-1)
[46] = target: HIV-1 Env of pseudovirus 94UG103 (HIV-1)
[47] = target: HIV-1 Env of pseudovirus 92BR020 (HIV-1)

B1: PGT-137 (B cell culture well 5345_I1) (antibody, V domains shown)
VH: EVHLEESGPGLVRPSETLSLTCTASGGSIRGGEWGDSDYHWGWVRHSPEKGLEWIGSIHWRGTTHYNAPFRGRGRLSIDLSRNQFSLRLTSVTAEDTAVYYCVKHKYHDIVMVVPIAGWFDPWGQGLQVTVSS
VL: EIMMTQSPAILSVSPGDRATLSCRASQSVKNNLAWYQKRPGQAPRLLIFDTSSRASGIPARFSGGGSGTEFTLTVNSMQSEDFATYYCQQYEEWPRTFGQGTKVEIK
[1]
  Primary Neutralization Index (B cell culture supernatant): 1.1
[2]
  Primary Neutralization Index (B cell culture supernatant): 3.3
[3]
  Primary Neutralization Index (B cell culture supernatant): 11.3

B2: PGT-127 (antibody, V domains shown)
VH: QPQLQESGPGLVEASETLSLTCTVSGDSTGRCNYFWGWVRQPPGKGLEWIGSLSHCRSYYNTDWTYHNPSLKSRLTISLDTPKNQVFLRLTSVTAADTATYYCARFGGEVLVYRDWPKPAWVDLWGRGTLVVTVS
VL: QSALTQPPSASGSPGQSITISCTGTSNNFVSWYQQYPGKAPKLVIYEVNKRPSGVPDRFSGSKSGSTASLTVSGLQADDEGVYYCSSLVGNWDVIFGGGTKLTVL
[4]
  IC50 (µg/mL), neutralization of pseudovirus: > 50 µg/mL
[5]
  IC50 (µg/mL), neutralization of pseudovirus: 0.032 µg/mL
[6]
  IC50 (µg/mL), pseudovirus neutralization: > 50 µg/mL
[7]
  IC50 (µg/mL), pseudovirus neutralization: > 50 µg/mL
[8]
  IC50 (µg/mL), neutralization of pseudovirus: > 50 µg/mL
[9]
  IC50 (µg/mL), pseudovirus neutralization: 3.4 µg/mL
[10]
  IC50 (µg/mL), pseudovirus neutralization: > 50 µg/mL
[11]
  IC50 (µg/mL), neutralization of pseudovirus: > 50 µg/mL
[12]
  IC50 (µg/mL), pseudovirus neutralization: > 50 µg/mL
[13]
  IC50 (µg/mL), neutralization of pseudovirus: 0.113 µg/mL
[14]
  IC50 (µg/mL), neutralization of pseudovirus: > 50 µg/mL
[15]
  IC50 (µg/mL), neutralization of pseudovirus: 0.429 µg/mL
[16]
  IC50 (µg/mL), pseudovirus neutralization: > 50 µg/mL
[17]
  IC50 (µg/mL), pseudovirus neutralization: 0.014 µg/mL
[18]
  IC50 (µg/mL), pseudovirus neutralization: > 50 µg/mL
[19]
  IC50 (µg/mL), neutralization of pseudovirus: > 50 µg/mL
[20]
  IC50 (µg/mL), pseudovirus neutralization: 0.57 µg/mL
[21]
  IC50 (µg/mL), pseudovirus neutralization: > 50 µg/mL
[22]
  IC50 (µg/mL), pseudovirus neutralization: 19.2 µg/mL
[23]
  IC50 (µg/mL), neutralization of pseudovirus: > 50 µg/mL
[24]
  IC50 (µg/mL), pseudovirus neutralization: 0.532 µg/mL
[25]
  IC50 (µg/mL), neutralization of pseudovirus: 0.009 µg/mL
[26]
  IC50 (µg/mL), pseudovirus neutralization: > 50 µg/mL
[27]
  IC50 (µg/mL), neutralization of pseudovirus: > 50 µg/mL
[28]
  IC50 (µg/mL), pseudovirus neutralization: 0.41 µg/mL
[29]
  IC50 (µg/mL), pseudovirus neutralization: 1.07 µg/mL
[30]
  IC50 (µg/mL), neutralization of pseudovirus: > 50 µg/mL
[31]
  IC50 (µg/mL), pseudovirus neutralization: > 50 µg/mL
[32]
  IC50 (µg/mL), pseudovirus neutralization: 7.57 µg/mL
[33]
  IC50 (µg/mL), neutralization of pseudovirus: 7.7 µg/mL
[34]
  IC50 (µg/mL), pseudovirus neutralization: > 50 µg/mL
[35]
  IC50 (µg/mL), pseudovirus neutralization: 0.057 µg/mL
[36]
  IC50 (µg/mL), pseudovirus neutralization: 0.319 µg/mL
[37]
  IC50 (µg/mL), pseudovirus neutralization: 6.95 µg/mL
[38]
  IC50 (µg/mL), pseudovirus neutralization: > 50 µg/mL
[39]
  IC50 (µg/mL), pseudovirus neutralization: > 50 µg/mL
[40]
  IC50 (µg/mL), pseudovirus neutralization: > 50 µg/mL
[41]
  IC50 (µg/mL), neutralization of pseudovirus: 19.3 µg/mL
[42]
  IC50 (µg/mL), neutralization of pseudovirus: > 50 µg/mL
[43]
  IC50 (µg/mL), neutralization of pseudovirus: > 50 µg/mL
[44]
  IC50 (µg/mL), pseudovirus neutralization: 1.08 µg/mL
[45]
  IC50 (µg/mL), pseudovirus neutralization: 0.017 µg/mL

B3: PGT-123 (B cell culture well 4858_P8) (antibody, V domains shown)
VH: QLHLQESGPGLVKPPETLSLTCSVSGASINDAYWSWIRQSPGKRPEWVGYVHHSGDTNYNPSLKRRVTFSLDTAKNEVSLKLVDLTAADSATYFCARALHGKRIYGIVALGELFTYFYMDVWGKGTAVTVSS
VL: SSMSVSPGETAKISCGKESIGSRAVQWYQQKPGQPPSLIIYNNQDRPAGVPERFSASPDFRPGTTATLTITNVDAEDEADYYCHIYDARGGTNWVFDRGTTLTVL
[1]
  Primary Neutralization Index (B cell culture supernatant): 1.6
[46]
  Primary Neutralization Index (B cell culture supernatant): 1.1
[3]
  Primary Neutralization Index (B cell culture supernatant): 33.8
[47]
  Primary Neutralization Index (B cell culture supernatant): 2.8

B4: Antibody of B cell culture well 4869_K15 (antibody, V domains shown)
VH: QVHLQESGPGLVTPSETLSLTCTVSNGSVSGRFWSWIRQSPGRGLEWIGYFSDTDRSEYNPSLRSRLTLSVDRSKNQLSLRLKSVTAADSATYYCARAQQGKRIYGIVSFGEFFYYYYMDAWGKGTPVTVSS
VL: SLNPLSLAPGATAKIPCGERSRGSRAVQWYQQKPGQAPTLIIYNNQDRPAGVSERFSGNPDVAIGVTATLTISRVEVGDEADYYCHYWDSRSPISWIFGGGTQLTVL
[1]
  Primary Neutralization Index (B cell culture supernatant): 2.1
[46]
  Primary Neutralization Index (B cell culture supernatant): 1.5
[3]
  Primary Neutralization Index (B cell culture supernatant): 104
[47]
  Primary Neutralization Index (B cell culture supernatant): 3.9

B5: PGT-136 (B cell culture wells 5366_P21 and 5329_C19) (antibody, V domains shown)
VH: QLQLQESGPGLVKPSETLSLTCTVSGGSMRGTDWGENDFHYGWIRQSSAKGLEWIGSIHWRGRTTHYKTSFRSRATLSIDTSNNRFSLTFSFVTAADTAVYYCARHKYHDIFRVVPVAGWFDPWGQGLLVTVSS
VL: EIVMTQSPPTLSVSPGETATLSCRASQNVKNNLAWYQLKPGQAPRLLIFDASSRAGGIPDRFSGSGYGTDFTLTVNSVQSEDFGDYFCQQYEEWPRTFGQGTKVDIK
[1]
  Primary Neutralization Index (B cell culture supernatant): 1.1 and 0.9
[2]
  Primary Neutralization Index (B cell culture supernatant): 5.5 and 5.6
[3]
  Primary Neutralization Index (B cell culture supernatant): 6.2 and 6
